Positions count from the first letter of the chain named. Names and notes keep the numbering of the source. Values belong to the binder of their own block, whether it stands above or below them.
How the values were obtained:
[1] = molecular target: T1, human CD47 protein, His Tag (ACRObiosystems, Cat. No. CD7-H5227) (human, UniProt Q08722 19-139); experiment: Biacore SPR, antibody captured on CM5 chip, CD47-His protein, 25 C
T1 construct: Bought protein; also called hCD47-His Tag protein; not shown: His tag
Experimental: (§1) The equilibrium dissociation constants KD (in unit M) were obtained by measuring the binding kinetics of the human CD47 protein (human CD47 protein, His Tag; ACRObiosystems, Cat. No. CD7-H5227) and cynomolgus monkey CD47 protein (cynomolgus/rhesus macaque CD47 protein, His Tag; ACRObiosystems, Cat. No. CD7-C52H1) to anti-CD47 antibodies (chimeric or humanized) using Biacore. The Biacore analysis was performed at 25° C. and data were recorded at a rate of 1 Hz.
(§2) At the beginning of each cycle, the diluted test antibody (1.5 μg/mL) was injected onto the experimental flowcell and maintained for 1 min to be captured.

[2] = molecular target: T2, cynomolgus/rhesus macaque CD47 protein, His Tag (ACRObiosystems, Cat. No. CD7-C52H1) (cynomolgus monkey, UniProt A0A2K5X523 19-139); experiment: as above
T2 construct: Bought protein; also called Cynomolgus monkey CD47 protein; not shown: His tag
Experimental: as §1, §2

T1 sequence (Q08722 19-139 limits assumed): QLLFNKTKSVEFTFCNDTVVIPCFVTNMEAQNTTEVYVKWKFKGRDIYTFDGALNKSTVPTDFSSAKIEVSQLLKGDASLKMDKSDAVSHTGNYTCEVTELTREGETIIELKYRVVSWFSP

Kd [1]: 9.31 nM
Kd [2]: 2.26 nM
B1: hz16E5-1.2 (antibody, human IgG4 S228P, kappa)
heavy: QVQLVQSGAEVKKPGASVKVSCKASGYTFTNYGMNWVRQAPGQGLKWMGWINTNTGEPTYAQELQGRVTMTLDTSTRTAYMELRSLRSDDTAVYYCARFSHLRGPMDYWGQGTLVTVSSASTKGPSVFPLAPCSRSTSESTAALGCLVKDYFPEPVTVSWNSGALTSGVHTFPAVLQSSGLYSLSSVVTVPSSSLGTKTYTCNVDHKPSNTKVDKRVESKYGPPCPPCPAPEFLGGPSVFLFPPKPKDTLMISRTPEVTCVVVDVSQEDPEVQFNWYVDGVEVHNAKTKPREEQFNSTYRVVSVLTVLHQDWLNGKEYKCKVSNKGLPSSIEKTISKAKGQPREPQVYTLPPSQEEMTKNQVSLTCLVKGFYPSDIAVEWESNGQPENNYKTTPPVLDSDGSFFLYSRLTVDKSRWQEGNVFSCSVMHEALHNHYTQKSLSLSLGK
light: DIQMTQSPSSLSASVGDRVTITCRSSQSLVHSNGYTYLHWYQQKPGKAPKLLIYKVSNRFSGVPSRFSGSGSGTDFTLTISSLQPEDFATYYCSQSTHVPPTFGQGTKLEIKRTVAAPSVFIFPPSDEQLKSGTASVVCLLNNFYPREAKVQWKVDNALQSGNSQESVTEQDSKDSTYSLSSTLTLSKADYEKHKVYACEVTHQGLSSPVTKSFNRGEC
notes: Humanized 16E5, full-length heavy and light chains, made in CHO cells

Kd [1]: 7.13 nM
Kd [2]: 1.87 nM
B2: hz16E5-3.3 (antibody, human IgG4 S228P, kappa)
heavy: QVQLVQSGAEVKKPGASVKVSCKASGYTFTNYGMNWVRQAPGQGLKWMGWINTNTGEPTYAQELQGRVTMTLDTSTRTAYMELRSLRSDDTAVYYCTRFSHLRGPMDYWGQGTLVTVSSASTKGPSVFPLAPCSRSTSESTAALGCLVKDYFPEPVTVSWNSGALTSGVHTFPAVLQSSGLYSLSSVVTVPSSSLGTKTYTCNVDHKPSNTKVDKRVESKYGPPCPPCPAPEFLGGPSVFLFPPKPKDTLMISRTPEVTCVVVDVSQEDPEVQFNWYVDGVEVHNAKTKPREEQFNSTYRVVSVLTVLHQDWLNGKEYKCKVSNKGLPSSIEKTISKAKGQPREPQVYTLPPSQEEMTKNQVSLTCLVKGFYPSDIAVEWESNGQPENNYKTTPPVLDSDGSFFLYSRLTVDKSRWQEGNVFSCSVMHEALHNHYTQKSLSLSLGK
light: B1 light with I2A
notes: as for B1

Kd [1]: 18.9 nM
Kd [2]: 4.77 nM
B3: hz16E5-1.1 (antibody, human IgG4 S228P, kappa)
heavy: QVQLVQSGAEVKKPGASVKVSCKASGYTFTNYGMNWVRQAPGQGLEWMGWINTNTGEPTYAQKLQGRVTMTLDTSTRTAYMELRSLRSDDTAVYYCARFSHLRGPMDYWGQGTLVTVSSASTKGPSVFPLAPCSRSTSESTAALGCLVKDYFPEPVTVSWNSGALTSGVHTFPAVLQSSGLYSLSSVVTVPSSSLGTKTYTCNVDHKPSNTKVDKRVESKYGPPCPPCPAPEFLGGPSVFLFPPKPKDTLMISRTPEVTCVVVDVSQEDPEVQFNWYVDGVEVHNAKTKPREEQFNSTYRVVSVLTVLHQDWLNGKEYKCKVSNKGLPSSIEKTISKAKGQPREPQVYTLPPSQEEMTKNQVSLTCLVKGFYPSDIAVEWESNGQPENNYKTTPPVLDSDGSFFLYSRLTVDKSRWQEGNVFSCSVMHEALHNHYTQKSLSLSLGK
light: B1 light
notes: as for B1

Kd [1]: 15.3 nM
Kd [2]: 2.73 nM
B4: hz16E5-1.3 (antibody, human IgG4 S228P, kappa)
heavy: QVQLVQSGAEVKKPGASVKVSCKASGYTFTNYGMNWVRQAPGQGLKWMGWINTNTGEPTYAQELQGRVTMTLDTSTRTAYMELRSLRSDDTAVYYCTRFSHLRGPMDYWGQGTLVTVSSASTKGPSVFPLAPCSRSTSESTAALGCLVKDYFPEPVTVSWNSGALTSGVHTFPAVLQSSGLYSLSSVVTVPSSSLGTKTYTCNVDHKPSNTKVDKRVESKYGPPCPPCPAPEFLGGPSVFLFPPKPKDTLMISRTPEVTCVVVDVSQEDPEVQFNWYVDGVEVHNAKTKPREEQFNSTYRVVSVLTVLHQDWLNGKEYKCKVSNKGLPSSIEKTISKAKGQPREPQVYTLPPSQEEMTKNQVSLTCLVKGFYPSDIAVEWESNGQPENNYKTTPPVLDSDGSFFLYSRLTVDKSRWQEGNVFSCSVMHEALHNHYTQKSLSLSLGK
light: B1 light
notes: as for B1

Kd [1]: 6.28 nM
Kd [2]: 3.28 nM
B5: hz16E5-3.1 (antibody, human IgG4 S228P, kappa)
heavy: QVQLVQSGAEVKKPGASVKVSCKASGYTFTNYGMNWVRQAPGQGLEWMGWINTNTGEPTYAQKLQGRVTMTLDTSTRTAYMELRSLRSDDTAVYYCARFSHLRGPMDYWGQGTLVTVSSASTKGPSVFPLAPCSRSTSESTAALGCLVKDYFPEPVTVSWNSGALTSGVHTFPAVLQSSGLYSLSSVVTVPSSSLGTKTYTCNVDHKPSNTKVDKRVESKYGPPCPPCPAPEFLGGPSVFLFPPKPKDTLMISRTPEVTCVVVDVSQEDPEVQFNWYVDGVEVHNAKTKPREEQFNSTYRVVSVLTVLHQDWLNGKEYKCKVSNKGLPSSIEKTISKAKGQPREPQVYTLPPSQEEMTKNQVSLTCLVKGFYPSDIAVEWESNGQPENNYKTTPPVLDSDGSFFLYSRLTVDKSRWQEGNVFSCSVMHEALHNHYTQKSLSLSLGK
light: B1 light with I2A
notes: as for B1

Kd [1]: 17.1 nM
Kd [2]: 3.1 nM
B6: hz16E5-3.2 (antibody, human IgG4 S228P, kappa)
heavy: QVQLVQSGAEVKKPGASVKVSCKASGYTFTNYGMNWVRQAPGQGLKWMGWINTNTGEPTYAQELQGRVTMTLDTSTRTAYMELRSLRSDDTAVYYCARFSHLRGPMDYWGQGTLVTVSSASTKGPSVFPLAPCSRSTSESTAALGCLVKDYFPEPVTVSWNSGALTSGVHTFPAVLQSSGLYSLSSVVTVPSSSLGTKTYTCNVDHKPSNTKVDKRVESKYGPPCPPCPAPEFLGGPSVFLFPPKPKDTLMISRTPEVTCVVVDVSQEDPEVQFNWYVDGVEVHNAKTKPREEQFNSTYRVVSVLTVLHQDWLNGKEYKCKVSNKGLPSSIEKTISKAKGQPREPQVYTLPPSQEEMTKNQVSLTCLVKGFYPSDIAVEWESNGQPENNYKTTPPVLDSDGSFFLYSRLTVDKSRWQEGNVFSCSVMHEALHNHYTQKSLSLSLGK
light: B1 light with I2A
notes: as for B1

Kd [1]: 1.53 nM
B7: hz3F10-3.1 (antibody, human IgG4 S228P, kappa, V domains shown)
VH: QVQLVQSGAEVKKPGSSVKVSCKASGYTFSRYWIEWVRQAPGQGLEWMGEFIPGSDTTNYAQKFQGRVTITADISTSTAYMELSSLRSEDTAVYYCARGGLRRMDYWGQGTLVTVSS
VL: DIQMTQSPSSLSASVGDRVTITCRASSSVSSTYLHWYQQKPGKAPKLLIYTTSTLASGVPSRFSGSGSGTSYTLTISSLQPEDFATYYCQQFSDSTWTFGQGTKLEIKR
notes: Humanized 3F10, full-length heavy and light chains, made in CHO cells

Kd [1]: 0.836 nM
Kd [2]: 1.17 nM
B8: hz3F10-2.1 (antibody, human IgG4 S228P, kappa, V domains shown)
VH: B7 VH
VL: B7 VL with S71D, Y72F, D94E
notes: as for B7

Kd [1]: 1.34 nM
Kd [2]: 1.86 nM
B9: hz3F10-4.2 (antibody, human IgG4 S228P, kappa, V domains shown)
VH: B7 VH with D73E, S77N
VL: B7 VL with D94E
notes: as for B7

Kd [1]: 1.15 nM
Kd [2]: 1.47 nM
B10: hz3F10-3.2 (antibody, human IgG4 S228P, kappa, V domains shown)
VH: B7 VH with D73E, S77N
VL: B7 VL
notes: as for B7

Kd [1]: 1.42 nM
Kd [2]: 1.62 nM
B11: hz3F10-4.1 (antibody, human IgG4 S228P, kappa, V domains shown)
VH: B7 VH
VL: B7 VL with D94E
notes: as for B7

Kd [1]: 0.946 nM
Kd [2]: 1.31 nM
B12: hz3F10-1.1 (antibody, human IgG4 S228P, kappa, V domains shown)
VH: B7 VH
VL: B7 VL with S71D, Y72F
notes: as for B7

Kd [1]: 0.779 nM
Kd [2]: 1.14 nM
B13: hz3F10-2.2 (antibody, human IgG4 S228P, kappa, V domains shown)
VH: B7 VH with D73E, S77N
VL: B7 VL with S71D, Y72F, D94E
notes: as for B7

Kd [1]: 0.592 nM
Kd [2]: 2.47 nM
B14: hz3F10-6.1 (antibody, human IgG4 S228P, kappa, V domains shown)
VH: B7 VH
VL: B7 VL with L48W, D94E
notes: as for B7

Kd [1]: 0.96 nM
Kd [2]: 1.3 nM
B15: hz3F10-5.1 (antibody, human IgG4 S228P, kappa, V domains shown)
VH: B7 VH
VL: B7 VL with L48W
notes: as for B7

Kd [1]: 0.904 nM
Kd [2]: 1.33 nM
B16: hz3F10-1.2 (antibody, human IgG4 S228P, kappa, V domains shown)
VH: B7 VH with D73E, S77N
VL: B7 VL with S71D, Y72F
notes: as for B7

Kd [1]: 0.765 nM
Kd [2]: 1.15 nM
B17: hz3F10-6.2 (antibody, human IgG4 S228P, kappa, V domains shown)
VH: B7 VH with D73E, S77N
VL: B7 VL with L48W, D94E
notes: as for B7

Kd [1]: 0.896 nM
Kd [2]: 1.4 nM
B18: hz3F10-5.2 (antibody, human IgG4 S228P, kappa, V domains shown)
VH: B7 VH with D73E, S77N
VL: B7 VL with L48W
notes: as for B7

Kd [1]: 0.767 nM
Kd [2]: 1.04 nM
B19: Xi3F10 (antibody, human IgG4 S228P, kappa, V domains shown)
VH: EVQLQQSVAELMKPGASVKIYCKATGYTFSRYWIEWVKQRPGHGLEWIGEFIPGSDTTNFNEKFKGKATFTAEISSNTAYMQLSSLTSEDSAVYFCARGGLRRMDYWGQGTSVTVSS
VL: DIVMTQTPAIMSASPGEKVTMTCRASSSVSSTYLHWYQQKSGASPKLWIYTTSTLASGVPARFSGSGSGTSYSLTISSVEAEDAATYYCQQFSDSTWTFGGGTKLEIKR
notes: Chimeric: mouse VH on human IgG4 (S228P, EU) constant region, mouse VL on human kappa constant region; made in CHO cells; also called chimeric version of 3F10

Kd [1]: 0.35 nM
Kd [2]: 1.25 nM
B20: Xi2H8 (antibody, human IgG4 S228P, kappa, V domains shown)
VH: QVQLKESGPGLVAPSQSLSITCTVSGFSLTNYGVHWVRQPPGKGLEWLGIIWAGGSTNYNSALMSRLSISKDNSKSQVFLKMNSLQTDDTAMYYCARDDYASMDYWGQGTSVTVSS
VL: DAFMTQTPLSLPVSLGDQASISCRSSQSLVHSNGNTYLHWYLQKPGQSPKLLIYKVSNRFSGVPDRFSGSGSGTDFTLKISRVEAEDLGVYFCSQSTHVPYTLGGGTKLEIKR
notes: Chimeric: mouse VH on human IgG4 (S228P, EU) constant region, mouse VL on human kappa constant region; made in CHO cells; also called chimeric version of 2H8

Kd [1]: 9.06 nM
Kd [2]: 2.92 nM
B21: Xi16E5 (antibody, human IgG4 S228P, kappa, V domains shown)
VH: EVQLQQSGPELKKPGETVKISCKASGYTFTNYGMNWVKQVPGKGLKWMGWINTNTGEPTYAEEFKGRFAFSLETSARTAFLQINNLKNEDTATYFCTRFSHLRGPMDYWGQGASVTVSS
VL: B20 VL with F3V, N35Y, V83L, Y101P, L103F
notes: Chimeric: mouse VH on human IgG4 (S228P, EU) constant region, mouse VL on human kappa constant region; made in CHO cells; also called chimeric version of 16E5

Kd [1]: 7.48 nM
Kd [2]: 1.2 nM
B22: Xi2B2 (antibody, human IgG4 S228P, kappa, V domains shown)
VH: EVMLVESGGGLVQPGGSLKLSCAASGFTFSNYYMSWVRQTPEKRLEWVAYISSGGGSTYYPDSVKGRFTISRDNAKNTLYLQMSSLKSEDTAMYYCAWFAYWGQGTLVTVSA
VL: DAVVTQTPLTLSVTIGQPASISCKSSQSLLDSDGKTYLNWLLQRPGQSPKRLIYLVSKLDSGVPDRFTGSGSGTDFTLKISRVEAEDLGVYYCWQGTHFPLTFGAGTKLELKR
notes: Chimeric: mouse VH on human IgG4 (S228P, EU) constant region, mouse VL on human kappa constant region; made in CHO cells; also called chimeric version of 2B2

Kd [1]: 0.204 nM
Kd [2]: 3.07 nM
B23: hz14A9-2.3 (antibody, human IgG4 S228P, kappa, V domains shown)
VH: QVQLVQSGAEVKKPGASVKVSCKVSGFNIEDDYIEWVRQAPGQGLEWMGRIDPANDKTKYAQKFQGRVTMTGDTSTNTVYMELSSLRSEDTAVYYCARPGLRRYYSMDYWGQGTLVTVSS
VL: DIQMTQSPSSLSASVGDRVTITCKASENVVSYVSWYQQKPGKAPKLLIYGASNRYTGVPSRFIGSGSSTDFTLTISSLQPEDFATYYCGQSYSYPLTFGQGTKLEIKR

Kd [1]: 8.55 nM
Kd [2]: 2 nM
B24: hz14A9-2.4 (antibody, human IgG4 S228P, kappa, V domains shown)
VH: B23 VH with A97T
VL: B23 VL

Kd [1]: 2.35 nM
Kd [2]: 1.58 nM
B25: Xi14A9 (antibody, human IgG4 S228P, kappa, V domains shown)
VH: EVQLQQSGAEVARPGASVKLSCTVSGFNIEDDYIEWVKQRPEQGLEWIGRIDPANDKTKYAPKFQDKATITGDTSSNTAYLQLSSLTSEDTAVYYCTRPGLRRYYSMDYWGQGTSVTVSS
VL: NIVLTQSPKSMSMSVGERVTLSCKASENVVSYVSWYQQKPEQSPKLLIYGASNRYTGVPDRFIGSGSSTDFTLIISSFQPEDLADYHCGQSYSYPLTFGAGTKLELKR
notes: Chimeric: mouse VH on human IgG4 (S228P, EU) constant region, mouse VL on human kappa constant region; made in CHO cells; also called chimeric version of 14A9
